Results from PMC7430634, “Inactivation of the dimeric RappLS20 anti-repressor of the conjugation operon is mediated by peptide-induced tetramerization” (Nucleic Acids Research, 2020).

Columns and labels:
[1] = system: PlcR; conditions: SAXS, 2QFC, ref Declerck et al., 2007 (Suppl. ref 7); cited from earlier work
[2] = molecular target: PhrF* peptide (Bacillus subtilis) (UniProt P71001); conditions: cited from earlier work
[3] = molecular target: Rap_(pLS20) (Bacillus subtilis plasmid pLS20); assay: AUC; sedimentation equilibrium, apo Rap_(pLS20) at 4.5 to 25 μM; same conditions as the SV experiments; 7000 to 10 000 rpm
[4] = molecular target: Rap_(pLS20) (Bacillus subtilis plasmid pLS20); assay: SAXS; Rap_(pLS20) at 0.5 to 5 mg/ml with 5-fold molar Phr*_(pLS20); 15 mM HEPES pH 7.5, 150 mM NaCl, 1 mM DTT; 293 K; volume fractions of dimer and foot-2-foot tetramer by OLIGOMER
[5] = molecular target: Rap_(pLS20) (Bacillus subtilis plasmid pLS20); assay: SAXS; apo Rap_(pLS20) at 0.5 to 5 mg/ml (11.3–113 μM); 15 mM HEPES pH 7.5, 150 mM NaCl, 1 mM DTT; 293 K; volume fractions of dimer and foot-2-foot tetramer by OLIGOMER
[6] = molecular target: Rap_(pLS20) (Bacillus subtilis plasmid pLS20); assay: AUC; sedimentation equilibrium, Rap_(pLS20) (0–15 μM) with Phr*_(pLS20) at 1:3 stoichiometry (Rap:Phr*); same conditions as the SV experiments
[7] = molecular target: Rap_(pLS20) (Bacillus subtilis plasmid pLS20); assay: AUC; sedimentation velocity, 4.5 μM Rap_(pLS20) with Phr*_(pLS20) at 4.5 μM or 15 μM; 20 mM Tris, 250 mM NaCl, 10 mM MgCl2, 1 mM EDTA, 0.1 mM β-mercaptoethanol, 1% glycerol, pH 7.4
[8] = molecular target: Rap_(pLS20) (Bacillus subtilis plasmid pLS20); assay: AUC; sedimentation velocity, apo Rap_(pLS20) at 4.5 and 25 μM; 20 mM Tris, 250 mM NaCl, 10 mM MgCl2, 1 mM EDTA, 0.1 mM β-mercaptoethanol, 1% glycerol, pH 7.4; 48 000 rpm
[9] = molecular target: Rap_(pLS20) (Bacillus subtilis plasmid pLS20); assay: SEC; Superdex 200 increase 5/150 GL, 500 mM NaCl, 20 mM TRIS pH 8, 0.2 ml/min; proteins alone (1 mg/ml) and mixtures at 1:2, 1:4, 1:1 and 2:1 (Rco:Rap) incubated 30 min on ice; total protein 0.75–1.25 mg/ml; Phr* at 5:1 over Rap where added
[10] = molecular target: Rco_(pLS20) (Bacillus subtilis plasmid pLS20); assay: as above
[11] = molecular target: NprR; conditions: NprR and its cognate peptide NprX; cited from earlier work
[12] = molecular target: Rap_(pLS20) (Bacillus subtilis plasmid pLS20); assay: fluorescence polarisation; equilibrium competition: native Phr*_(pLS20) 0.6–1250 μM against 10 μM Rap_(pLS20) and 50 nM 6-FAM-Phr*_(pLS20); 20 mM Tris pH 7.5, 150 mM NaCl, 1 mM DTT, 0.01% Triton X-100; 25°C

In the case of LPFEF [PapR], the “oligomerization state of PlcR with peptide” value [1] is listed as “tetramers”.

In the case of RapF (from UniProt P71002), the Kd [2] is given as 3.1 µM.

For Rap_(pLS20) (natural protein), the stoichiometry N [3] was 2, the percent tetramers above 2.5 mg/ml (57.7 μM) with Phr* (pLS20) [4] was 100% and the percent tetramers at 0.5 mg/ml (11.3 μM) with Phr* (pLS20) [4] was 75%. The dimer fraction at 0.5 mg/ml (11.3 μM) [5] was 0.78, the dimer fraction at 5 mg/ml (0.11 mM) [5] was 0.48 and the tetramer fraction at 0.5 mg/ml (11.3 μM) [5] was 0.22. The tetramer fraction at 5 mg/ml (0.11 mM) [5] was 0.52, the stoichiometry N [6] was 4 and the stoichiometry N [7] was 4. The percent as a single species (dimer) at 4.5 μM [8] was > 96%, the percent tetramers at 4.5 μM [8] was 1.1% and the percent tetramers at 25 μM [8] was 3.6%. For the same molecule, the stoichiometry N [8] was 2 and the stoichiometry N [9] was 2.

With Rco_(pLS20) (natural protein) the stoichiometry N [10] was 4.

For “SSKPDIVG [NprX, cognate peptide of NprR, eight amino acids (SSKPDIVG)]”, the Kd [11] is given as 0.03 µM.

In the case of QKGMY [Phr*_(pLS20) peptide (QKGMY)], the IC50 [12] is reported as 26.7 µM and the Kd [12] is reported as 7.42 µM.
